# The nanobody polyreactivity screen of Harvey et al. (2022)
# Test: yeast display, Sf9 membrane polyspecificity reagent, FACS + sequencing; frameworks hold sequencing errors
# Method in brief: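 Synthetic nanobody libraries on Saccharomyces cerevisiae BJ5465 were galactose-induced for 36–48 hours, stained 1 hour at 4 °C with 10% biotinylated, detergent-solubilized Sf9 membrane reagent and enriched on streptavidin microbeads. FACS then separated cells into low and high (top ~1%) gates by anti-HA (expression) and streptavidin (reagent binding) fluorescence. Genes were colony-PCR amplified, MiSeq 2 × 250 sequenced and CDR-length filtered. A clone's polyreactivity label is that of its gate of origin.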
row,Sequence,polyreactivity (PSR sort gate)
1,QVQLQESGGGPVLAGGSLRLSCAASGTIFVRLDMGWYRQAPGKEREFVATIGSGSSTYYADSVKGSFTISRDNVKNPVYLQMNSLKPEDTAVYYCAVSAAEQSRHYYWDQGTQVTVSS,low polyreactivity
2,QVQLQESGGGQVQAGGSLRLSCAASGTIFLYAFMGWYRQAPGKERELVAAIDVGTTTNYADSVKGRFTISRDNAKNTVYLQMNSLKPEDTAVYYCAAPYVSWDYRYYYWGQGTQVTVSS,low polyreactivity
3,QVQLQESGGLVQAGGLRLSSAASGSVSYQEAMGWYRQAPGKERELVATISFGANTNYADSVKGRFTISRDNAKNTVYLQMNSLKPEDTAVYYCAAESLFDDYYGYWGQGTQVTVSS,low polyreactivity
4,QVQLQESGGLVQAGGMRLSCEASGSVSYQEAMGWYRQAPGKERELVATISFGANTNYADIVKGRFTISRDNAKNTVYLQMNSLKPEDTAVYYCAAESLFDDYYGYWGQGTQVTVSS,low polyreactivity
5,QVQLQESGGRLVQAGVSLRLSCAASGSIYDDTYMGWYRQAPGKERELVATIDSGSTTNYADSVKGRITISRDNAKNTVYLQMNSLKPEDTAVYYCAAADSHIDYFDYWGQGTQVTVSS,low polyreactivity
6,QVQLQESGGRMVQAGGSLRLSCAASGYISWADYKGWYRQAPGKERELVAGIGYGSTTYYADSVKGRFTISRDNAKNTSYLQMNSLKPEDTAVYYCAVGWYRDSAYKYWGQGTQVTVSS,low polyreactivity
7,QVQLQESGGVQAGGSLRLSCAASGYISRSDVKGWYRQAPGKERELVATINNGTITYYADSVKGRFTISRDNAKNTVYLQMNSLKPEDTAVHYCAVVQSDTDSLYYWGQGTQVTVSS,low polyreactivity
8,QVQLQESGGVQVQAGGSLRLSCAASGYISTHYFMGWYRQAPGKDREFVAGISNGSITNYADSVKGRFTISRDNARNTVYLQMNSLKPEDTAVYYGAAYEWTYVRFGYWGQGTLVTVSS,high polyreactivity
9,QVQLQESGRGLVQAGGSLRLSCAASGYISYFVGMGWYRQAPGKEREFVASIADGSNTYYADSVKGRFTISRDNAKNTVCLQRNSLKPEVTAVYYCAVEDSWTYRFDYWGEGTQVTVSS,high polyreactivity
10,QVQLQESGRRPGAAGGSPRMSCAASGNIFWVAVMGRYRQAPGKERELVASIGFGCTTYYADSVKCRFTISRDNAKNTVFLQLISLKPEDTAVYYCAAPLYDWGELDDWGQGTQVPVSS,low polyreactivity
11,QVQLQESGRRPGAAGGSPRMSCAASGNIFWVAVMGRYRQAPGKERELVASIGFGCTTYYADSVKCRFTISRDNAKNTVYLQMISLQPEDTAVYYCAAPHYDWGELDYWGQGTQVPVSS,low polyreactivity
12,QVQLQESRGGLVQEGGSLRLSSAASGNISPPAHMGWYRPAPGKQRELVASIGNGRTTNYADSVKGRFTISRHNANNTVYLQMYSLKPDETAVYYCSAVRYEYNPYDYWGQGTQVTVSS,low polyreactivity
13,QVQLQESRGGQVQEGGSLRLSCAASGNISPPADMGWYRQAPGKERELVASIGTGGTTNYADSVKGRFTISRDNAKNTVYLQMKSLKPDDTAVYYCAAVRFEYNPYDYWGQGTQVTVSS,low polyreactivity
14,QVQLQESVGGLVQAGGSLRLSCAASGNIFPTDRMGWYRQAPGKELEFVATNSHGGSTNYADSVKGRFTISRDNAKNTVYLQMNSLKPEDTAVYYCAVWSLGRWRHYYWGQGTQVTVSS,low polyreactivity
15,QVQLQESVGGLVQAGGSLRLSCAASGTIFRISDMGSYRQAPGKEREFVAAITYGANTYYADSGKGRFTISRDNAKNTVYLQMNSLKPEDTAVYYCAVPPVKETILDYWGQGTQVTVSS,low polyreactivity
16,QVQLQESVGGLVQAGGSLRLSCAATGTIFTDRFMGWYRQAPGKERELVAGISQGTSTNYADSVKGRFTISRDNAKNTVYLQMNSLKPEDTAVYYCAADLSTGNTLPYWGQGTQVTVSS,high polyreactivity
17,QVQLQESVVGLVQAGGSLRLSCAASGNIIPTDRMGWYRQAPGKELEFVATISHGGSTNYADSVKGRFTISRDNAKNTVYLQMNSLKPEDTAVYYCAVWSLGSWRHYYWGQGTQVTVSS,low polyreactivity
18,QVQLQGSGGGLVQAGGSLRLSCAASGYIFQNVPMGWNRQAPCKERELVAGIDNGTSTNYADSVNGRFTISRDNAKNTVYLQMNSLKPEDTAVYYCAAAGQADDTLGYWGQGTQVTVSS,low polyreactivity
19,QVQLQGSGGGLVQAGGSLRLSCAASGYIFQNVPMGWNRQAPGKERELVAGIDNGTSTNYADSVNGRFTISRDNAKNTVYLQMNSLNPVDTAVYYCAAAGQADDTLGYWGQGTQVTVSS,low polyreactivity
20,QVQLQGSGGGLVQSGGSLRLSCAASGKIFDADIMGWYRQAPGKESELVASITHGGSTNYADSVKGRFTISRDNAKNNVYLQMNSLIQEDTAVYYCAAIAYPDIPTYFDYDSDCFYWSQGTQVTVSS,high polyreactivity
21,QVQLQLSGGDLVQAGRSLRLSCAASGTIYGLTSMGWYRQAQAKEREFVAAITDGGKTNYADSVKGRFTISRDNAKNTVYLQMIRLKPEDTAVYYCAVLFSDDAYYAYWGQGTQVTVSS,low polyreactivity

row,Sequence,polyreactivity (PSR sort gate)
1,QVQLQVRGGDLVQAGGSLRLSCAASGTIYRLTTMGWYRQAPGKEREFVAAITDGGNTNYADSVKGRFTISRDNAKNTVYLQMICLKPEDTAVYYCAVLFSDDAYYAYWGQGTQVTVSS,low polyreactivity
2,QVQLQVSGGHLVQAGGSLRLSCAASGTIYGLTSMGWYSQAPGKEREFVAAITDGGNTNYADSVKGRFTISRDNAKNTVYLQMISLKPEDTSVYYCAFLFSDDAYFAYWGQGTQVTLSS,low polyreactivity
3,QVQLRESGAGGRQPAPELRGERQYFYWSADGLVSQPPGKEREFVAGIDRGTITNYADSVRGRFTISRDNAKNTVYLQMNSLKPEDTAVYYCNAEYRRRPKLGDEDEYWGHGTQVTVSS,high polyreactivity
4,QVQLVASAAGLVQAVGSLRLSCAASASTIGYYAMGWSRQAPGKERELVAAISWSGGSTYYADSVKGRFTISRDNAKNTVYLQMNSLKPEDTAVYFCAADTYPDYYLVEYYYWGQGTQVTVSS,low polyreactivity
5,QVQLVASGGGLVQAGGSLRLSFAASGRNFAYNTMGWYRQAPGKERELVAAITWSGGGKYYADSVKGRFTISRDNAKNTVYLHMNSLKPEDTAVYYCAVVYASPRARYRYYYWGQGTQVTVSS,low polyreactivity
6,QVQLVASGGRLVQAGGSLRLSCASSGSIFGWYAMGWYRQAPGKERELVAVITSGGSTYYADSVKGRFTISRDNAKNTVYLQMNSLKPVDTAVYYCNARYHAGYKGYNYWGQGTQVTVSS,high polyreactivity
7,QVQLVDSAGGLVQAGGSLRLSCAASGLTFPPNAMGWYRQAPGKEREFVAVISSGGGSTYYADSVKGRFTISRDNAKNTVYLQMNSLKPEDTAVYYCATEYQDGDTEYYYWGQGTQVTVSS,low polyreactivity
8,QVQLVDSCGGLVQAGGSLSLSCAASGRTFTRYAMGWYRQAPGKERELVASITNGGGTYYADSVKGRFTISRDNAKNTVYLQMNSLKPEDTAVYYCAKAERVTSHIYYSWGQGTQVTVSS,low polyreactivity
9,QVQLVDSGAGLVQAGGSLRLSCPASGRIFAVNAMGWYRKAPGKERELVAAINGGGSTNYADSVKGRFTISRDNAKNTVYLQMNSLKPQDTAVYYCAADVGWRSQTRGYYWGQGTQVTVSS,high polyreactivity
10,QVQLVDSGGAIVQAGGSLRLSCAASGRTYHRNSKGWYRQAPGKERELVAAITGDGRTNYADSVKGRFTISRDNAKNTVFLPINSLKPEDTAVYYCAATFGFFYYHYDYWGQGTQVTVSS,low polyreactivity
11,QVQLVDSGGGIGQAGASLRLSCAASGRNFAVYAIGWYRQAPGKERELVAAITRNGGSTYADSVKGRFTISRDNAKNTVYFQMNSLKPDDTAVYYCNAVAYIYSYAYPPYWGREHLNYWGQGTQLTVSS,low polyreactivity
12,QVQLVDSGGGLFQAGGSHRLSFAASGSILRSNAMGWYRQAPGKERELVAVINGSGGRTYYADSVKGRFTISRDNAKNTVYLQMNSLKPEDTAVYYCNADPGGRYPRRGYAHEGDYWGQGTKVTVSS,low polyreactivity
13,QVQLVDSGGGLVHAGGSLRLSCAASGRTFFINTMGWYRQPPGKEREFVAAITWSAGRTYYADSVKGRITISRDNAKNTVYLQMISLKPEDTAVYYCAAALDGHTFPFYYWGQGTQVTVSS,low polyreactivity
14,QVQLVDSGGGLVHAGGSLSLSCAASGRIFSHYALGWYRQAPGKERELVAAISSRGGRTYYADSVKGRFTISRDNAKNTVYLQMNSLKPEDPAVYYCAAVIRSVYSYYEYDYWGQCTQVTVSS,high polyreactivity
15,QVQLVDSGGGLVQAGASLRLSCAASGIIFWSYTMGWYRQAPGKERELVAAINWSGTRTYYADSVKGRFTISRDNAKNTVYLQMNSLKTEDTAVYYCNADSRYRSFDYWGQGTQVTVSS,high polyreactivity
16,QVQLVDSGGGLVQAGASLRLSCAASGSTLSYYTMGWYRQAPGKERELVAAISWRGGSTYYADSVKGRFTISRDNAKNTVYLQMNSLKPEDTAVYYCATAIRGSPDSSLYYYWGQGTQVTLSS,high polyreactivity
17,QVQLVDSGGGLVQAGCSIRITCSATGITFVANTKGWYRQEPVKERELVDTITSSGGSTYYADSVKGRFTISRDNAKNSVYLQMNSLKPEDTAVFYCAASDLRYRGNYVYLPSEYWGQGSQVTVSS,low polyreactivity
18,QVQLVDSGGGLVQAGGILRLRFAASGYTFDKYAMGWYRQKPGKARELVAAITSLGGSKYYADSVKGRFTISRDHAKNTVYLQMNSLKPDVTAVYYCAAEYVAPVPRVHEEMYYWGQGTQVTVSS,high polyreactivity
19,QVQLVDSGGGLVQAGGILRLSCAASGLTFYDNAMGWYRQAPAKERELVAAISDSGGSTYYADSVKGRFTISRDNAKNTVFLQMNSLKPEDTAVYYCAAAGWQANWEYEYWGQGTQVTVSS,high polyreactivity
20,QVQLVDSGGGLVQAGGRLRLSCAASGFIYEPNAMGGYRQAPGKEMELVAAISSGGSTYADSVKGRFTISRDNAKNTVYLQMNSLKPEDTAVYYCAADSYYSVWGFYYWGQGTQVTVSS,low polyreactivity
